Reference: ChEMBL document CHEMBL1137310, “Stereoselective chemoenzymatic synthesis of the four stereoisomers of l-2-(2-carboxycyclobutyl)glycine and pharmacological characterization at human excitatory amino acid transporter subtypes 1, 2, and 3” (J Med Chem, 2006)

How the values were obtained:
Type in all cases: functional, cell-based
[1] = substrate: N[C@H](C(=O)O)[C@H]1CC[C@@H]1C(=O)O; test: (§1) Substrate activity at human EAAT1 expressed in HEK293 cells by FLIPR membrane potential assay
[2] = substrate: N[C@@H](CCC(=O)O)C(=O)O; test: as §1
[3] = substrate: N[C@H](C(=O)O)[C@@H]1CC[C@H]1C(=O)O; test: as §1
[4] = substrate: N[C@H](C(=O)O)[C@H]1CC[C@@H]1C(=O)O; test: (§2) Substrate activity at human EAAT3 expressed in HEK293 cells by FLIPR membrane potential assay
[5] = substrate: N[C@@H](CCC(=O)O)C(=O)O; test: as §2

B1: Excitatory amino acid transporter 1 (Homo sapiens), P43003 (protein)
chain: MTKSNGEEPKMGGRMERFQQGVRKRTLLAKKKVQNITKEDVKSYLFRNAFVLLTVTAVIVGTILGFTLRPYRMSYREVKYFSFPGELLMRMLQMLVLPLIISSLVTGMAALDSKASGKMGMRAVVYYMTTTIIAVVIGIIIVIIIHPGKGTKENMHREGKIVRVTAADAFLDLIRNMFPPNLVEACFKQFKTNYEKRSFKVPIQANETLVGAVINNVSEAMETLTRITEELVPVPGSVNGVNALGLVVFSMCFGFVIGNMKEQGQALREFFDSLNEAIMRLVAVIMWYAPVGILFLIAGKIVEMEDMGVIGGQLAMYTVTVIVGLLIHAVIVLPLLYFLVTRKNPWVFIGGLLQALITALGTSSSSATLPITFKCLEENNGVDKRVTRFVLPVGATINMDGTALYEALAAIFIAQVNNFELNFGQIITISITATAASIGAAGIPQAGLVTMVIVLTSVGLPTDDITLIIAVDWFLDRLRTTTNVLGDSLGAGIVEHLSRHELKNRDVEMGNSVIEENEMKKPYQLIAQDNETEKPIDSETKM
- Km [1]: 300 µM
- Km [2]: 7.9 µM
- Km [3]: 96 µM

B2: Excitatory amino acid transporter 3 (Homo sapiens), P43005 (protein)
chain: MGKPARKGCEWKRFLKNNWVLLSTVAAVVLGITTGVLVREHSNLSTLEKFYFAFPGEILMRMLKLIILPLIISSMITGVAALDSNVSGKIGLRAVVYYFCTTLIAVILGIVLVVSIKPGVTQKVGEIARTGSTPEVSTVDAMLDLIRNMFPENLVQACFQQYKTKREEVKPPSDPEMNMTEESFTAVMTTAISKNKTKEYKIVGMYSDGINVLGLIVFCLVFGLVIGKMGEKGQILVDFFNALSDATMKIVQIIMCYMPLGILFLIAGKIIEVEDWEIFRKLGLYMATVLTGLAIHSIVILPLIYFIVVRKNPFRFAMGMAQALLTALMISSSSATLPVTFRCAEENNQVDKRITRFVLPVGATINMDGTALYEAVAAVFIAQLNDLDLGIGQIITISITATSASIGAAGVPQAGLVTMVIVLSAVGLPAEDVTLIIAVDWLLDRFRTMVNVLGDAFGTGIVEKLSKKELEQMDVSSEVNIVNPFALESTILDNEDSDTKKSYVNGGFAVDKSDTISFTQTSQF
- Km [4]: 300 µM
- Km [5]: 9.9 µM
